Data published in patent publication US20030165887A1 (BURNHAM INSTITUTE, published 2003).

What was measured:
Experiment in all cases: co-immunoprecipitation, transfected HEK293T cells, SDS-PAGE/immunoblot
[1] = molecular target: cIAP2 (Homo sapiens (Human), UniProt Q13489 1-604)
Method: (§1) The TUCAN polypeptides were expressed by transient transfection in HEK293T cells together with epitope-tagged pro-caspase-9 or other proteins. […] Cell lysates were prepared from transfected cells and immunoprecipitations were performed using anti-Flag or anti-Myc antibodies, followed by SDS-PAGE/immunoblot analysis.

[2] = molecular target: T1, pro-Caspase-2 (UniProt P42575 1-452, limits assumed)
T1 sequence (looked up): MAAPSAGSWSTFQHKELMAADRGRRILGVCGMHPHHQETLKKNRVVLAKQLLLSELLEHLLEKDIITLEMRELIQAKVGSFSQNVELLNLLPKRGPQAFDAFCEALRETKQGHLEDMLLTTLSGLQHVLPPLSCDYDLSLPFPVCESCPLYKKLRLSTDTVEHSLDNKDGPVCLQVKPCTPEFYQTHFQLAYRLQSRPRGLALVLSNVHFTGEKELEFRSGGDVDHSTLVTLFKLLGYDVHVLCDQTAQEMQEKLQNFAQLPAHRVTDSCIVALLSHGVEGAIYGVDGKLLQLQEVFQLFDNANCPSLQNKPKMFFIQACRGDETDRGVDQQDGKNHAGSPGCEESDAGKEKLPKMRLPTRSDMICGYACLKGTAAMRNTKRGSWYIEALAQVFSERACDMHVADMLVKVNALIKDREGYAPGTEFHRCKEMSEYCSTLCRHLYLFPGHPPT
Method: as §1

[3] = molecular target: T2, Nod1 (CARD4) (UniProt Q9Y239 1-953, limits assumed)
T2 construct: also called Nodl
T2 sequence (looked up): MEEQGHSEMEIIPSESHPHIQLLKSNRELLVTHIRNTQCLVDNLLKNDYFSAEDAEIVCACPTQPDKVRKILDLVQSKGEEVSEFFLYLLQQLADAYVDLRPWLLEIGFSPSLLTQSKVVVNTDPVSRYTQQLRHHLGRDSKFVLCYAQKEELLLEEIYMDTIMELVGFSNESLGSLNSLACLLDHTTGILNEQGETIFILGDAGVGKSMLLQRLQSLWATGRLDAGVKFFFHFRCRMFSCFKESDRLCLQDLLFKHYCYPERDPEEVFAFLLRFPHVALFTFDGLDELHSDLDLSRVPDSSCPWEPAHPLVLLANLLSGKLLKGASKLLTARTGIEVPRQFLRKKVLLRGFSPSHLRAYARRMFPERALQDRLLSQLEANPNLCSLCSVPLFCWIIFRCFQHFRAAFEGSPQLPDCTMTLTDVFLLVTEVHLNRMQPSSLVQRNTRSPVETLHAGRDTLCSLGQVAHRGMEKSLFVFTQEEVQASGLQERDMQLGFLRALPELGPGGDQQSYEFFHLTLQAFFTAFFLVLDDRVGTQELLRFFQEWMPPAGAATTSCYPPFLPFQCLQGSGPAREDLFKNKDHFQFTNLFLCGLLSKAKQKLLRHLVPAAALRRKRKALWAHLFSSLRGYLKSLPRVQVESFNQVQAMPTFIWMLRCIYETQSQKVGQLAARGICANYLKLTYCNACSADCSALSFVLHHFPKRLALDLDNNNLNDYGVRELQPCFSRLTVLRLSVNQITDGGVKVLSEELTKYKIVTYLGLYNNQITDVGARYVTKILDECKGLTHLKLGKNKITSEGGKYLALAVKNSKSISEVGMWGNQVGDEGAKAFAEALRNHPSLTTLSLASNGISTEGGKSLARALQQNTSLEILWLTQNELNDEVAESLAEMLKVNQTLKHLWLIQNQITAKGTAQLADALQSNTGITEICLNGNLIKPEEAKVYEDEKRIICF
Method: as §1

[4] = molecular target: T3, Cardiak (RIP2) (UniProt O43353 1-540, limits assumed)
T3 construct: also called RICK
T3 sequence (O43353 whole entry): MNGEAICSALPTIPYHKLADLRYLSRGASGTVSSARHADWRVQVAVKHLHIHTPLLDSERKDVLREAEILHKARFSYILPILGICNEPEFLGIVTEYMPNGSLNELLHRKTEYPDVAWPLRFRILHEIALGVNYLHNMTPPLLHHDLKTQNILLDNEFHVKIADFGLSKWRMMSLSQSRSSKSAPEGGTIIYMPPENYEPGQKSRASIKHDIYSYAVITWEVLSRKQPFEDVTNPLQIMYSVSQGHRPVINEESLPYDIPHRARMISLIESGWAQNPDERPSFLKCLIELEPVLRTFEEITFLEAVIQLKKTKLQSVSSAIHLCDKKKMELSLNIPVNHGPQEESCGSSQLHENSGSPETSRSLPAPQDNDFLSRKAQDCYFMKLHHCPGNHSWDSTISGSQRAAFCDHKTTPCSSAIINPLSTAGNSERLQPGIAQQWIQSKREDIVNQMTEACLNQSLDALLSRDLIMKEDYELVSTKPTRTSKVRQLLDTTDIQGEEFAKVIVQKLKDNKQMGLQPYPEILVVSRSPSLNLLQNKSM
Method: as §1

Chain of cIAP2 (Q13489 whole entry): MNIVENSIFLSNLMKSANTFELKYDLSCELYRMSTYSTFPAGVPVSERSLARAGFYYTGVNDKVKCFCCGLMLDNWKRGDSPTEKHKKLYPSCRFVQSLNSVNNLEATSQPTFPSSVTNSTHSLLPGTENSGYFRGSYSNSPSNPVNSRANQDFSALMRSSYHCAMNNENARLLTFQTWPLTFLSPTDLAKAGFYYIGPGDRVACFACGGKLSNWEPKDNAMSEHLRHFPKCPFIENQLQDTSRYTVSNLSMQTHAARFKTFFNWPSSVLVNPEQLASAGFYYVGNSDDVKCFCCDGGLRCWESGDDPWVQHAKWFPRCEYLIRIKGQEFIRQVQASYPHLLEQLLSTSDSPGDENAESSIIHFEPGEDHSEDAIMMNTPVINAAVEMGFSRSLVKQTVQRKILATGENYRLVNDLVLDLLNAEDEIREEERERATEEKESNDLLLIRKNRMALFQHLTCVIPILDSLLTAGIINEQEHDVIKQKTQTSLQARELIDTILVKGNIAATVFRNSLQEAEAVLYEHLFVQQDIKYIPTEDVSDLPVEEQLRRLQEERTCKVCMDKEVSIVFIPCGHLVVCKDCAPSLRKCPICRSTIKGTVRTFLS

binding result [1]: no binding | binding result [2]: no binding | binding result [3]: no binding | binding result [4]: no binding
B1: TUCAN (Tumor Up-regulated CARD-containing Antagonist of Caspase Nine), full-length (other)
chain: MMRQRQSHYCSVLFLSVNYLGGTFPGDICSEENQIVSSYASKVCFEIEEDYKNRQFLGPEGNVDVELIDKSTNRYSVWFPTAGWYLWSATGLGFLVRDEVTVTIAFGSWSQHLALDLQHHEQWLVGGPLFDVTAEPEEAVAEIHLPHFISLQGEVDVSWFLVAHFKNEGMVLEHPARVEPFYAVLESPSFSLMGILLRIASGTRLSIPITSNTLIYYHPHPEDIKFHLYLVPSDALLTKAIDDEEDRFHGVRLQTSPPMEPLNFGSSYIVSNSANLKVMPKELKLSYRSPGEIQHFSKFYAGQMKEPIQLEITEKRHGTLVWDTEVKPVDLQLVAASAPPPFSGAAFVKENHRQLQARMGDLKGVLDDLQDNEVLTENEKELVEQEKTRQSKNEALLSMVEKKGDLALDVLFRSISERDPYLVSYLRQQNL
notes: Full-length TUCAN expressed by transient transfection in HEK293T cells; also called full-length TUCAN; CARD-X
